Laboratory results as given in the RNAGym collection of RNA variant scans (doi:10.7554/elife.90254).

B1: LINE1-mini (parent)
chain: GGCAGAGCUCAACACAGCGUGGCAAAGUGGCUGUGGCUAGACUGCC

Variants of: B1
Experiment: self-cleavage, relative activity (ratio to wild type); higher = more cleavage; in vitro, sequencing; the parent is a self-cleaving ribozyme

Variant | self-cleavage
A4C G30C | 0.07
A14C G29C | 0.04
C3U G22A | 0.34
A24G U43A | 0.11
C3U C31G | 0.04
A14G C45U | 0.63
U38C C45G | 0.47
G7A A11U | 0.03
G30U C45A | 0.49
U9A G29A | 0.2
G5U G19U | 0.1
A4C G17C | 0.08
U32G C42G | 0.14
A14G G33A | 0.07
G35C C45A | 0.06
C42G U43G | 0.06
A25C U28G | 0.65
G1U U28A | 0.15
A11G C46U | 0.02
C18G U38A | 0.38
G17C G35C | 0.04

Variant | self-cleavage
G2A A24U | 0.86
C3A C42G | 0.08
G5U G22U | 0.18
G7U U28C | 0.05
G21U A26U | 1.93
G19U G36A | 0.1
C18G G30C | 1
C8A U32C | 0.23
G33U G36C | 0.05
A26U C31G | 0.08
C3A G17A | 0.16
C3G C13U | 0.37
C3U C8G | 0.15
C3U C8U | 0.71
G33U G40A | 0.03
G21U U34A | 0.12
U9A U28C | 0.1
G7C A11U | 0.04
G2C A24C | 0.06
A14C G22A | 0.18
G5A A11U | 0.04

Variant | self-cleavage
U34G U38C | 0.16
C8G A12C | 0.02
G19A U38A | 0.82
C3U G19A | 0.83
A24U G44A | 0.44
G33U U38G | 0.04
G2C U34A | 0.07
A11C A12U | 0.03
U20G A26U | 0.3
A12U U34A | 0.03
A6G A14G | 0.07
A6G A14U | 0.05
C15U G35U | 0.13
A26G G29A | 0.36
A16C C46U | 0.08
C8G C10A | 0.03
G2A U20G | 0.36
C15G A41C | 0.04
C31G C42G | 0.06
G2C G22U | 0.23
C3G U9C | 0.03

Variant | self-cleavage
C37A C45U | 0.08
C10G C31A | 0.04
U28C C46A | 0.66
A11C C31U | 0.03
G36A G40C | 0.27
A25C G35A | 0.11
G36U C46G | 0.08
C18A C45G | 0.14
U20G C42A | 0.1
A16U G40A | 0.04
A16U G40U | 0.07
U9A A41U | 0.28
U9G A24C | 0.07
G1U G44A | 0.11
A11U U28A | 0.11
G7U G33U | 0.13
A4G U32A | 0.06
C10U U38G | 0.03
C23G U34G | 0.23
A6C C46A | 0.5
G30C C31G | 0.44
